Reference: patent publication US20240279281A1, “Peptide Inhibitors of Interleukin-23 Receptor” (Janssen Pharmaceutica NV, priority 2023, published 2024)
Starred links: 1 amine or outer side, 2 acyl side, 3 side chain; linkers in the order of their positions; H or OH if unused. Positions of bridges follow the written chain, without caps; N, C: chain ends. Non-standard residues stand in square brackets, D forms with d. No end group written: not given here. X1 = 3‑(7-(3-acetamidophenyl)-1H-indol-3-yl)‑2‑aminopropanoic acid, CC(=O)Nc1cccc(-c2cccc3c(CC(N[*:1])C(=O)[*:2])c[nH]c23)c1; X3 = 4‑(2-(4-(2-amino-2-carboxyethyl)phenoxy)ethyl)‑4‑methylmorpholin‑4‑ium, C[N+]1(CCOc2ccc(CC(N[*:1])C(=O)[*:2])cc2)CCOCC1; X10 = 2‑amino‑3‑(4-(2-guanidinoethoxy)phenyl)propanoic acid, N=C(N)NCCOc1ccc(CC(N[*:1])C(=O)[*:2])cc1; Trp(7-(3-AcNH-Ph)) = CC(=O)Nc1cccc(-c2cccc3c(C[C@H](N)C(=O)O)c[nH]c23)c1; N‑methyl‑N‑acetyllysine = N-methyl-N-acetyllysine; 2Nal(6-OH) = N[C@@H](Cc1ccc2cc(O)ccc2c1)C(=O)O; Trp(7-Me) = Cc1cccc2c(C[C@H](N)C(=O)O)c[nH]c12; dLys(Me3) = C[N+](C)(C)CCCC[C@@H](N)C(=O)O; AEF = NCCOc1ccc(C[C@H](N)C(=O)O)cc1; 3Pal = N[C@@H](Cc1cccnc1)C(=O)O; d(hLys) = NCCCCC[C@@H](N)C(=O)O; Pen = CC(C)(S)[C@H](N)C(=O)O; αMeC = C[C@](N)(CS)C(=O)O; Thp = NC1(C(=O)O)CCOCC1; Sar = CNCC(=O)O

T1: interleukin-23 receptor (IL-23R), Q5VWK5
T1 chain: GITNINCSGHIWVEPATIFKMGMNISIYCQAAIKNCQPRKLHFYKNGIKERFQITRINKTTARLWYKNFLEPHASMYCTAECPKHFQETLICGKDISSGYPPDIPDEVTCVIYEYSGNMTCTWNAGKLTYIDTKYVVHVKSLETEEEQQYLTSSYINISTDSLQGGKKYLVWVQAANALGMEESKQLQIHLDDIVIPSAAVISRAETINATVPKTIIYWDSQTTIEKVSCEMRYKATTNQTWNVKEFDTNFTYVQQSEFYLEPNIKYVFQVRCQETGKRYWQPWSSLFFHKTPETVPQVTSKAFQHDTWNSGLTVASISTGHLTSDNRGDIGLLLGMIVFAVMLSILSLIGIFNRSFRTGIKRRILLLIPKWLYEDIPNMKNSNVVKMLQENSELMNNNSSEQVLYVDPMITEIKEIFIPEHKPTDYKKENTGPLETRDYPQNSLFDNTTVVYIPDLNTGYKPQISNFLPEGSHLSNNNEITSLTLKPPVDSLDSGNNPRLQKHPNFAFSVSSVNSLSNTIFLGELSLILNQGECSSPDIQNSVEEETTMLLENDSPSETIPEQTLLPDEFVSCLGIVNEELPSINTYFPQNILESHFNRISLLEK


Target: T1, interleukin-23 receptor (IL-23R), Q5VWK5
Experiment: cell-based or functional assay

| Binder | IL23R Reporter Assay IC50 [nM] | PBMC pSTAT3 IC50 |
| --- | --- | --- |
| R[Pen]NT[Trp(7-(3-AcNH-Ph))]K(Ac)[Pen]Y[2Nal(6-OH)][Thp]EN[3Pal][Sar] (disulfide 2-7 (inferred); ends not checked) [SEQ ID NO: 65] | < 10 | < 1 nM |
| [Pen]NT[Trp(7-(3-AcNH-Ph))]K(Ac)[Pen][5‑(4-(2-amino-2-carboxyethyl)phenoxy)‑N,N,N‑trimethylpentan‑1‑aminium][2Nal(6-OH)][Thp]EN[3Pal][Sar] (disulfide 1-6 (inferred); ends not checked) [SEQ ID NO: 63] | < 10 | < 0.1 nM |
| R[Pen]NT[Trp(7-Me)]K(Ac)[Pen][AEF][2Nal(6-OH)][Thp]ENH[Sar] (disulfide 2-7 (inferred); ends not checked) [SEQ ID NO: 57] |  | < 1 nM |
| R[Pen]NT[Trp(7-Me)]K(Ac)[Pen][5‑(4-(2-amino-2-carboxyethyl)phenoxy)‑N,N,N‑trimethylpentan‑1‑aminium][2Nal(6-OH)][Thp]K(Ac)N[3Pal][Sar] (disulfide 2-7 (inferred); ends not checked) [SEQ ID NO: 58] | < 10 | < 0.1 nM |
| R[Pen]NT[Trp(7-(3-AcNH-Ph))]K(Ac)[Pen][X3][2Nal(6-OH)][Thp]ENH[Sar] (disulfide 2-7 (inferred); ends not checked) [SEQ ID NO: 64] |  | < 1 nM |
| [Pen]NT[X1]K(Ac)[Pen][X10][2‑amino‑3‑(6-hydroxynaphthalen-2-yl)propanoic acid][Thp]EN[3Pal][Sar] (ends and bridges not checked) [SEQ ID NO: 9] | < 10 | > 1 nM |
| [Pen]NT[Trp(7-Me)]K(Ac)[Pen][X3][2Nal(6-OH)][Thp]EN[3Pal][Sar] (disulfide 1-6 (inferred); ends not checked) [SEQ ID NO: 56] | < 10 | < 10 pM |
| [dLys(Me3)]CNT[Trp(7-Me)]K(Ac)[αMeC][2‑amino‑3‑(4-(2-aminoethoxy)phenyl)propanoic acid][2‑amino‑3‑(6-hydroxynaphthalen-2-yl)propanoic acid][Thp]EN[3Pal][Sar] (ends and bridges not checked) [SEQ ID NO: 8] | < 10 | < 10 pM |
| [dLys(Me3)][Pen]NT[Trp(7-Me)]K(Ac)[Pen][5‑(4-(2-amino-2-carboxyethyl)phenoxy)‑N,N,N‑trimethylpentan‑1‑aminium][2Nal(6-OH)][Thp]EN[3Pal][Sar] (not fully specified (bridges); ends and bridges not checked) [SEQ ID NO: 67] | < 10 | < 0.1 nM |
| [Pen]NT[Trp(7-(3-AcNH-Ph))]K(Ac)[Pen][X3][2Nal(6-OH)][Thp][N‑methyl‑N‑acetyllysine]NH[Sar] (disulfide 1-6 (inferred); ends not checked) [SEQ ID NO: 62] | < 10 | < 1 nM |

Second part, the binder after the results:

| IL23R Reporter Assay IC50 [nM] | PBMC pSTAT3 IC50 | Binder |
| --- | --- | --- |
| < 10 | < 0.1 nM | R[Pen]NTWK(Ac)[Pen][AEF][2Nal(6-OH)][Thp]EN[3Pal][Sar] (not fully specified (bridges); ends and bridges not checked) [SEQ ID NO: 74] |
|  | < 1 nM | [d(hLys)](Me3)[Pen]NT[Trp(7-Me)]K[Pen][AEF][2Nal(6-OH)][Thp]K(Ac)N[3Pal][Sar] (disulfide 2-7 (inferred); ends not checked; also: K6: lipidated lysine, lipid not given here) [SEQ ID NO: 119] |
|  | < 1 nM | K[Pen]NT[Trp(7-Me)]K(Ac)[Pen][AEF][2Nal(6-OH)][Thp]K(Ac)N[3Pal][Sar] (disulfide 2-7 (inferred); ends not checked; also: K1: lipidated lysine, lipid not given here) [SEQ ID NO: 118] |
| < 10 | < 10 pM | R[Pen]NT[Trp(7-Me)]K(Ac)[Pen][X3][2Nal(6-OH)][Thp]EN[3Pal][Sar] (not fully specified (bridges); ends and bridges not checked) [SEQ ID NO: 77] |
| < 10 | < 10 pM | [Pen]NT[Trp(7-(3-AcNH-Ph))]K(Ac)[Pen][AEF][2Nal(6-OH)][Thp]EN[3Pal][Sar] (not fully specified (bridges); ends and bridges not checked) [SEQ ID NO: 69] |
|  | < 1 nM | R[Pen]NT[Trp(7-Me)]K(Ac)[Pen][AEF][2Nal(6-OH)][Thp]EN[3Pal][Sar]K (disulfide 2-7 (inferred); ends not checked; also: K15: lipidated lysine, lipid not given here) [SEQ ID NO: 116] |
|  | < 1 nM | R[Pen]NT[Trp(7-(3-AcNH-Ph))]K(Ac)[Pen][X3][2Nal(6-OH)][Thp]EN[Thp] (disulfide 2-7 (inferred); ends not checked) [SEQ ID NO: 110] |
|  | < 1 nM | K[Pen]NT[Trp(7-Me)]K(Ac)[Pen][AEF][2Nal(6-OH)][Thp]EN[3Pal][Sar] (disulfide 2-7 (inferred); ends not checked; also: K1: lipidated lysine, lipid not given here) [SEQ ID NO: 126] |
| < 10 | < 10 pM | [Pen]NT[Trp(7-Me)]K(Ac)[Pen][5‑(4-(2-amino-2-carboxyethyl)phenoxy)‑N,N,N‑trimethylpentan‑1‑aminium][2Nal(6-OH)][Thp]EN[3Pal][Sar] (not fully specified (bridges); ends and bridges not checked) [SEQ ID NO: 79] |
|  | < 0.1 nM | [Pen]NT[Trp(7-Me)]K[Pen][AEF][2Nal(6-OH)][Thp]K(Ac)N[3Pal][Sar] (disulfide 1-6 (inferred); not fully specified (residue 5); ends not checked; also: K5: lipidated lysine, lipid not given here) [SEQ ID NO: 96] |
